{"source": "the nanobody polyreactivity screen of Harvey et al. (2022)", "data": [{"assay": "yeast display, Sf9 membrane polyspecificity reagent, FACS + sequencing; frameworks hold sequencing errors", "outline": "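A synthetic nanobody library was expressed on Saccharomyces cerevisiae BJ5465 by galactose induction for 36–48 hours. The library was stained for 1 hour at 4 °C with 10% biotinylated, detergent-solubilized Sf9 membrane reagent and enriched with streptavidin microbeads before FACS. Low and high (top ~1%) gates were set on anti-HA fluorescence for expression and streptavidin fluorescence for reagent binding, and each polyreactivity label reflects the gate of origin.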", "values": [{"sequence": "QVQLVESGGGLVQAGGSLRLSCAASGFIFACYAMAWYRQAPGKERELVATISSSGARTYYADSVKGRFTISRDNAKNTVYLQMNSLKPEDTAVYYCSAAGRYRPVSPYSGYNYWGQGTQVTVSS", "polyreactivity (PSR sort gate)": "high polyreactivity"}, {"sequence": "QVQLVESGGGLVQAGGSLRLSCAASGFIFAEYAMGWYRQAPGKERELVVAIDVGGGSTYYADSVKGRFTISRDNAKNTVYLQMNSLKPEDTAVYYCAATQYGYWVPYQGFDYWGQGTQVTVSS", "polyreactivity (PSR sort gate)": "low polyreactivity"}, {"sequence": "QVQLVESGGGLVQAGGSLRLSCAASGFIFAFYDKGWYRQAPGKERELVAAISWGGSTYYADSVKGRVTISRDNAKNTVYLQMNSLKPEDTAVYYCAARLSRSYLYGYWGQGTQVTVSS", "polyreactivity (PSR sort gate)": "high polyreactivity"}, {"sequence": "QVQLVESGGGLVQAGGSLRLSCAASGFIFAINAMGWYRQAPGKERELVAAITSSGGSTYYADSVKGRFTISRDNAKNTVYLQMNSLKPEDTAVYYCAAPQGNPSQDWEDYWGQGTQVTVSS", "polyreactivity (PSR sort gate)": "low polyreactivity"}, {"sequence": "QVQLVESGGGLVQAGGSLRLSCAASGFIFAPYAMGWYRQAPGKERELVAAISWSGGSTYYADSVKGRFTISRDNAKNTVYLQMNSLKPEDTAVYYCAAAGYITRYDRYDYWGQGTQVTVSS", "polyreactivity (PSR sort gate)": "high polyreactivity"}, {"sequence": "QVQLVESGGGLVQAGGSLRLSCAASGFIFAQNAMGWSRQAPGTERELVAAITSSGVSTYYADSVKGRFTISRDNAKNTVYLQMNSLKPEDTAVYYCNRTPRYTIRYGYWGQGTQVTVSS", "polyreactivity (PSR sort gate)": "high polyreactivity"}, {"sequence": "QVQLVESGGGLVQAGGSLRLSCAASGFIFARNAMGWYRQAPGKERELVATITRSSGSTYYADSVKGRFTISRDNAKNTVYLQMNSLKPEDTAVYYCNARLYGTFWGQGTQVTVSS", "polyreactivity (PSR sort gate)": "high polyreactivity"}, {"sequence": "QVQLVESGGGLVQAGGSLRLSCAASGFIFARNTMGWYRQAPGKERELVAAITKSGGSTYYADSVKGRFTISRDNAKNTVYLQMNSPKPEDTSVYYCAARSWWLRGIYGFDSWGQGTQVTVSS", "polyreactivity (PSR sort gate)": "low polyreactivity"}, {"sequence": "QVQLVESGGGLVQAGGSLRLSCAASGFIFARNVMGWSRQAPGKERELVAAISWSGGSTYYADSVKGRFTISRDNAKNTVYLQMNSLKPEDTAVYYCNKQFPFSKYYIMGYWGQGTQVTVSS", "polyreactivity (PSR sort gate)": "high polyreactivity"}, {"sequence": "QVQLVESGGGLVQAGGSLRLSCAASGFIFARYAMGWYIQAPGKERELVAAITRRGGSTYYADSVKGRFTISRDNAKNTVYLQMNSLKPEDTAVYYCAAVTSTSWGSVSYRYGVGYDYWGQGTQVTVSS", "polyreactivity (PSR sort gate)": "high polyreactivity"}, {"sequence": "QVQLVESGGGLVQAGGSLRLSCAASGFIFARYAMGWYREAPGKERELLAAITARGGSTYYADSVKGRFTISRDNAKNTVYLQMNSLKPEDTAVYYCADVSGYSTGGYRNRYNYWGQGTHVTVSS", "polyreactivity (PSR sort gate)": "high polyreactivity"}, {"sequence": "QVQLVESGGGLVQAGGSLRLSCAASGFIFARYAMGWYRQAPGKERELVASITGRGTSTRYADSVKGRFTISRDNAKNTVYLQMNSLKPEDTAVFYCNAARLSYSWVPSEMDYWGQGTQVTVSS", "polyreactivity (PSR sort gate)": "high polyreactivity"}, {"sequence": "QVQLVESGGGLVQAGGSLRLSCAASGFIFASNAMGWYRQAPGKERELVASISRSGGNTYYADSVKGRFTISRDNAKNTVYLQMNSLKPEDTAVYYCAAEYIFHYYDIFDYWGQGTQVTVSS", "polyreactivity (PSR sort gate)": "high polyreactivity"}, {"sequence": "QVQLVESGGGLVQAGGSLRLSCAASGFIFASYAMGWYRQAPGKERELVAAITQSGGITYYADSVKGRFTISRDNAKNTVYLQMTSLKPEDTAVYYCNTPLLKRTTRGRERNYWGQGTQVTVSS", "polyreactivity (PSR sort gate)": "low polyreactivity"}, {"sequence": "QVQLVESGGGLVQAGGSLRLSCAASGFIFASYTMGRTRQAPGKERELVAAISRAGSTYYADSVKGRFTISRDNAKNTVYLQMNSLKPEDTAVYYCNAVSWRTSRYDYWGQGTQVTVSS", "polyreactivity (PSR sort gate)": "high polyreactivity"}, {"sequence": "QVQLVESGGGLVQAGGSLRLSCAASGFIFAVYGMGWYTQAPGKQRELVAAISTGDSTKYADSVKGRFTISRDNAKNTVYLQMNSLNPEDTAVYYCAADGPYEGYDYWGQGTQVTVSS", "polyreactivity (PSR sort gate)": "high polyreactivity"}, {"sequence": "QVQLVESGGGLVQAGGSLRLSCAASGFIFAWSAMGWYRQAPGKERELVAAISYSGGSTFYADSVKGRFTISRDNAKNTVYLQMNSLKPEDTAVYYCARYYRALGTARNDYWGQGTQVTVSS", "polyreactivity (PSR sort gate)": "low polyreactivity"}, {"sequence": "QVQLVESGGGLVQAGGSLRLSCAASGFIFAWYAMGWSRQAPGKERELVADISWGGGSTYYADSVKGRFTISRDNAKNTVYLQMNSLKPEDTAVYYCAATRPATYAAYDYWGQGTQVTVSS", "polyreactivity (PSR sort gate)": "high polyreactivity"}, {"sequence": "QVQLVESGGGLVQAGGSLRLSCAASGFIFAYNAMGWYRQAPGKERELVASIRTRGGSTYYADSVKGRFTISRDNAKNTVYLQMNSLKPEDTAVYYCAARPFPRRYDYWGQGTQVTVSS", "polyreactivity (PSR sort gate)": "low polyreactivity"}, {"sequence": "QVQLVESGGGLVQAGGSLRLSCAASGFIFAYYAMGWYRQATGKERELVAGITRGSSTYYADSVKGRFTISRDNAKNTVYLQMNSLKPEDTAVYYCARGYTWFYAVWPEYDYWGEGTQVTVSS", "polyreactivity (PSR sort gate)": "high polyreactivity"}, {"sequence": "QVQLVESGGGLVQAGGSLRLSCAASGFIFDAYAMGWYRQAPGKERELVAAITRGNTYYADSVTGRFTISRDNAKNTVYLQMNSLKPEDTAVYYCAARYWQSYRSQVTHSSTLDYWGQGTQVTVSS", "polyreactivity (PSR sort gate)": "low polyreactivity"}, {"sequence": "QVQLVESGGGLVQAGGSLRLSCAASGFIFDDNAMGWYRQAPGKERELVAAITSGGGSTYYADSVKGRFTISRDNAKNTVYLQMNSLKPEDTAVYYCARDQTWSYQPWYYLSYPQYEYWGQGTQVTVSS", "polyreactivity (PSR sort gate)": "low polyreactivity"}, {"sequence": "QVQLVESGGGLVQAGGSLRLSCAASGFIFDDYAMGWYRQAPGKERELVAAISASGGRTFYADSVKGRFTISRDNAKNTVYLQMNSLKPEDTAVYYCATIVDTYVFRYYYWGQGTQVTVSS", "polyreactivity (PSR sort gate)": "high polyreactivity"}, {"sequence": "QVQLVESGGGLVQAGGSLRLSCAASGFIFDFYAMGWYRQAPGKERELVATINSSGTTNYADSVKGRFTISRDNAKNTVYLEMISLKPEDTAVYDCATVEYLGHYTYDYWGQGTQVTVSS", "polyreactivity (PSR sort gate)": "low polyreactivity"}, {"sequence": "QVQLVESGGGLVQAGGSLRLSCAASGFIFDIYAMGWYRQAPGKERELVASINWSGGDSTSYADSVKGRFTISRDNAKNTVYLQMNSLKPEDTAVYYCNAEYWSYAGGYPDEYDYWGQGTQVTVSS", "polyreactivity (PSR sort gate)": "low polyreactivity"}, {"sequence": "QVQLVESGGGLVQAGGSLRLSCAASGFIFDIYAMGWYRQAPGKERELVASINWSGGDSTSYADSVKGRFTISRVNAKNTVSLQMNILKPEDTAVYYCIAEYWYYAGGYPDEYDYWGQGPQVTVSS", "polyreactivity (PSR sort gate)": "low polyreactivity"}, {"sequence": "QVQLVESGGGLVQAGGSLRLSCAASGFIFDQNAMGWYRQAPGKERELVAAISKRGGSTYYADSVKGRFTISRDNAKNTVYLQMNSLKPEDTAVYYCATRSWGPYYYGYNHWGQGTQETVSS", "polyreactivity (PSR sort gate)": "high polyreactivity"}, {"sequence": "QVQLVESGGGLVQAGGSLRLSCAASGFIFDRYAMGWYRQAPGKERELVAVISKSGGRTYYADSVKGRFTISRDHAKNTVYLQMNSLKPEDTAVYYCAAYYKSTYVTGDYWGQGTQVTVSS", "polyreactivity (PSR sort gate)": "high polyreactivity"}, {"sequence": "QVQLVESGGGLVQAGGSLRLSCAASGFIFDSYAMGWYRQAPGKERELVAAISYSGGNTYYADSVKGRFTISRDNAKNTVYLQMNSLKPEDTAVYYCAAEWSDSRWWRLWWYGEDDYWGQGTQVTVSS", "polyreactivity (PSR sort gate)": "high polyreactivity"}, {"sequence": "QVQLVESGGGLVQAGGSLRLSCAASGFIFDTYVMGWYRQAPGKERELVAAISRTGGRTYYADSVKGRFTISRDNAKNTVYLQMNSLKPEDTAVYYCAAKVYYPYLFTSYDYWGQGTQVTVSS", "polyreactivity (PSR sort gate)": "high polyreactivity"}, {"sequence": "QVQLVESGGGLVQAGGSLRLSCAASGFIFDWNAMGWYRQAPGKERELVAAITWGGDGTFYADSVKGRFTISRDNAKNTVYLQMNSLKPEDTAVYYCAADSDSSFWWYYSWGQGTQVTVSS", "polyreactivity (PSR sort gate)": "low polyreactivity"}, {"sequence": "QVQLVESGGGLVQAGGSLRLSCAASGFIFDYYAMGWYRHAPGKERELVAAITSRGGSTYYADSVKGRFTISRDNAKNTVYLQMNSLKPEDTAVYYCAARRRSAEYNYWGQGTQVTVSS", "polyreactivity (PSR sort gate)": "high polyreactivity"}, {"sequence": "QVQLVESGGGLVQAGGSLRLSCAASGFIFDYYAMGWYRQAPGKERELVAAISGSGTSTYYADSVKGRFTISRDNAKYTVYLQMNSLKPEDTAVYYCSAESDWWSDIGYYWGQGTQVTVSS", "polyreactivity (PSR sort gate)": "high polyreactivity"}, {"sequence": "QVQLVESGGGLVQAGGSLRLSCAASGFIFDYYAMGWYRQAPGKERELVAGISRRGGSTYYADSVKGRFTISRDNAKNTVYLQMNSLKPEDTAVYYCNADAWRKVPHPGTGGRDYWGQGTQVTVSS", "polyreactivity (PSR sort gate)": "high polyreactivity"}, {"sequence": "QVQLVESGGGLVQAGGSLRLSCAASGFIFDYYAMGWYRQAPGKEWELVAGITRDGSTNYADSVKGRFTISRDNAKNTVYLQMNSLKPEDTAVYYCAAGPPRTRYRNARFDYWGQGTQVTVSS", "polyreactivity (PSR sort gate)": "high polyreactivity"}, {"sequence": "QVQLVESGGGLVQAGGSLRLSCAASGFIFEKYTMGWYRQAPGKERELVAAITWNGGSTYYADSVKGRFTISRDNAKNTVYLQMNSLIPEDTAVYYCARDDRDISGESGREGFLYDYWGQGTQVTVSS", "polyreactivity (PSR sort gate)": "low polyreactivity"}, {"sequence": "QVQLVESGGGLVQAGGSLRLSCAASGFIFEPYAMGWYRQEPGKERELVAAISNSDSTNYADSVKGLFTISRDNAKNTVYLQMNSLKAEDTAVYYCNADFSKSYDYWGQGTQVTVSS", "polyreactivity (PSR sort gate)": "low polyreactivity"}, {"sequence": "QVQLVESGGGLVQAGGSLRLSCAASGFIFESNAMGWYRQAPGKERELVAAITKRGGSTYYADSVKGRFTISRDNAKNTVYLQMNSLKPEDTAVYYCARYSSRYSSGYDYWGQGTQVTVSS", "polyreactivity (PSR sort gate)": "high polyreactivity"}, {"sequence": "QVQLVESGGGLVQAGGSLRLSCAASGFIFESTAMGWYRQAPGKERELVAGISNGDSTDYADSVKGRFTISRDNAKNTCYLQMNSLNPEDTAVYYCNAELWYSPYSQTTVRYDYWGQVTQVTVSS", "polyreactivity (PSR sort gate)": "low polyreactivity"}, {"sequence": "QVQLVESGGGLVQAGGSLRLSCAASGFIFEWNGMGWYRQAPGKERELVAAITWSGGSTYYADSVKGRFTISRDNAKNTVYLQMNSLKPEDTAVYYCNAYWKDDFEDGPGRRGMDYWGQGTQVTVSS", "polyreactivity (PSR sort gate)": "low polyreactivity"}]}]}
